Measurements published in the supplement of paper PMC9112550, “Optimization of the antimicrobial peptide Bac7 by deep mutational scanning” (BMC Biology, 2022).

test system: Escherichia coli TOP10; assay: shrunken log2 fold change of peptide-encoding DNA abundance (4.5 h post-induction vs induction); higher = less antimicrobial activity (less host growth inhibition); conditions: time post-induction: 4.5 h; library: site-saturation at positions 5, 18, 19, 20
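Note: peptides expressed intracellularly from a pBAD plasmid library in pooled LB shake-flask culture, induced with 0.3% L-arabinose, DNA abundance read by NGS, three biological replicates, DESeq2 with apeglm shrinkage.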

Sequence | shrunken log2 fold change
RRIRTRPPRLPRPRPRPALAPRP | 0.425
RRIRTRPPRLPRPRPRPALNPRP | -0.0937
RRIRTRPPRLPRPRPRPALTPRP | 0.251
RRIRTRPPRLPRPRPRPAPIPRP | 0.0613
RRIRTRPPRLPRPRPRPAPPPRP | 0.525
RRIRTRPPRLPRPRPRPAPRPRP | 1.39
RRIRTRPPRLPRPRPRPAQPPRP | 0.00354
RRIRTRPPRLPRPRPRPAQVPRP | -0.112
RRIRTRPPRLPRPRPRPARGPRP | 0.407
RRIRTRPPRLPRPRPRPARLPRP | 0.215
RRIRTRPPRLPRPRPRPARMPRP | 0.127
RRIRTRPPRLPRPRPRPASCPRP | 0.066
RRIRTRPPRLPRPRPRPASLPRP | 0.105
RRIRTRPPRLPRPRPRPASVPRP | 0.00118
RRIRTRPPRLPRPRPRPATMPRP | -0.0723
RRIRTRPPRLPRPRPRPAVLPRP | 0.153
RRIRTRPPRLPRPRPRPAVRPRP | 0.203
RRIRTRPPRLPRPRPRPAYWPRP | -0.017
RRIRTRPPRLPRPRPRPCANPRP | -0.148
RRIRTRPPRLPRPRPRPCAPPRP | -0.142
RRIRTRPPRLPRPRPRPCAQPRP | -0.05
RRIRTRPPRLPRPRPRPCCCPRP | 0.276
RRIRTRPPRLPRPRPRPCCDPRP | -0.151
RRIRTRPPRLPRPRPRPCDLPRP | 0.0183
RRIRTRPPRLPRPRPRPCDQPRP | -0.252

Sequence | shrunken log2 fold change
RRIRTRPPRLPRPRPRPCEDPRP | -0.0385
RRIRTRPPRLPRPRPRPCFNPRP | -0.667
RRIRTRPPRLPRPRPRPCFWPRP | 0.0653
RRIRTRPPRLPRPRPRPCGHPRP | -0.14
RRIRTRPPRLPRPRPRPCGSPRP | 0.00855
RRIRTRPPRLPRPRPRPCHIPRP | -0.292
RRIRTRPPRLPRPRPRPCILPRP | -0.831
RRIRTRPPRLPRPRPRPCKFPRP | -0.298
RRIRTRPPRLPRPRPRPCKPPRP | -0.996
RRIRTRPPRLPRPRPRPCKSPRP | 0.075
RRIRTRPPRLPRPRPRPCLMPRP | -0.15
RRIRTRPPRLPRPRPRPCLWPRP | -0.0838
RRIRTRPPRLPRPRPRPCMKPRP | -0.332
RRIRTRPPRLPRPRPRPCMVPRP | -0.576
RRIRTRPPRLPRPRPRPCPPPRP | -0.143
RRIRTRPPRLPRPRPRPCTAPRP | -0.0896
RRIRTRPPRLPRPRPRPCTFPRP | -0.241
RRIRTRPPRLPRPRPRPCWNPRP | 0.00718
RRIRTRPPRLPRPRPRPCYAPRP | -0.215
RRIRTRPPRLPRPRPRPCYQPRP | -0.335
RRIRTRPPRLPRPRPRPDCKPRP | -0.126
RRIRTRPPRLPRPRPRPDDPPRP | -0.00805
RRIRTRPPRLPRPRPRPDHKPRP | -0.117
RRIRTRPPRLPRPRPRPDNQPRP | -0.337
RRIRTRPPRLPRPRPRPDPNPRP | 0.0586

Sequence | shrunken log2 fold change
RRIRTRPPRLPRPRPRPDQNPRP | 0.0691
RRIRTRPPRLPRPRPRPDSNPRP | 0.0255
RRIRTRPPRLPRPRPRPDSWPRP | -0.595
RRIRTRPPRLPRPRPRPDTDPRP | -0.138
RRIRTRPPRLPRPRPRPDTTPRP | -0.0469
RRIRTRPPRLPRPRPRPDWSPRP | 0.163
RRIRTRPPRLPRPRPRPDYKPRP | -0.303
RRIRTRPPRLPRPRPRPECDPRP | -0.134
RRIRTRPPRLPRPRPRPECNPRP | 0.0232
RRIRTRPPRLPRPRPRPECPPRP | 0.151
RRIRTRPPRLPRPRPRPEDAPRP | 0.0648
RRIRTRPPRLPRPRPRPEDTPRP | -0.045
RRIRTRPPRLPRPRPRPEEIPRP | 0.0464
RRIRTRPPRLPRPRPRPEFAPRP | 0.0178
RRIRTRPPRLPRPRPRPEFLPRP | -0.536
RRIRTRPPRLPRPRPRPEFRPRP | -0.0543
RRIRTRPPRLPRPRPRPEGSPRP | 0.161
RRIRTRPPRLPRPRPRPEKKPRP | 0.0368
RRIRTRPPRLPRPRPRPEKRPRP | -0.0149
RRIRTRPPRLPRPRPRPENTPRP | -0.0831
RRIRTRPPRLPRPRPRPEPMPRP | 0.00621
RRIRTRPPRLPRPRPRPEQHPRP | 0.0492
RRIRTRPPRLPRPRPRPEQLPRP | 0.117
RRIRTRPPRLPRPRPRPEQMPRP | 0.233
RRIRTRPPRLPRPRPRPEQRPRP | -0.000852

Sequence | shrunken log2 fold change
RRIRTRPPRLPRPRPRPERCPRP | 0.0057
RRIRTRPPRLPRPRPRPERKPRP | 0.0268
RRIRTRPPRLPRPRPRPERMPRP | 0.275
RRIRTRPPRLPRPRPRPESGPRP | 0.366
RRIRTRPPRLPRPRPRPESNPRP | -0.178
RRIRTRPPRLPRPRPRPESPPRP | 0.305
RRIRTRPPRLPRPRPRPETQPRP | 0.205
RRIRTRPPRLPRPRPRPEVEPRP | 0.0992
RRIRTRPPRLPRPRPRPEVRPRP | 0.0828
RRIRTRPPRLPRPRPRPEVYPRP | -0.00166
RRIRTRPPRLPRPRPRPEYYPRP | -0.855
RRIRTRPPRLPRPRPRPFAHPRP | -0.039
RRIRTRPPRLPRPRPRPFARPRP | 0.00253
RRIRTRPPRLPRPRPRPFAWPRP | -0.0156
RRIRTRPPRLPRPRPRPFCHPRP | 0.0326
RRIRTRPPRLPRPRPRPFCWPRP | -0.0403
RRIRTRPPRLPRPRPRPFEEPRP | 0.00896
RRIRTRPPRLPRPRPRPFEFPRP | -0.508
RRIRTRPPRLPRPRPRPFFWPRP | 0.276
RRIRTRPPRLPRPRPRPFGAPRP | 0.334
RRIRTRPPRLPRPRPRPFICPRP | -0.292
RRIRTRPPRLPRPRPRPFINPRP | -0.161
RRIRTRPPRLPRPRPRPFKCPRP | -0.18
RRIRTRPPRLPRPRPRPFLPPRP | -0.279
RRIRTRPPRLPRPRPRPFLRPRP | -0.0935

Sequence | shrunken log2 fold change
RRIRTRPPRLPRPRPRPFMEPRP | -0.228
RRIRTRPPRLPRPRPRPFMGPRP | -0.0574
RRIRTRPPRLPRPRPRPFMNPRP | -0.787
RRIRTRPPRLPRPRPRPFMTPRP | -0.12
RRIRTRPPRLPRPRPRPFNFPRP | -0.617
RRIRTRPPRLPRPRPRPFNLPRP | -0.336
RRIRTRPPRLPRPRPRPFNYPRP | -0.269
RRIRTRPPRLPRPRPRPFPFPRP | -0.406
RRIRTRPPRLPRPRPRPFPGPRP | -0.21
RRIRTRPPRLPRPRPRPFPLPRP | -0.147
RRIRTRPPRLPRPRPRPFPWPRP | -0.125
RRIRTRPPRLPRPRPRPFQDPRP | 0.00739
RRIRTRPPRLPRPRPRPFQQPRP | 0.0654
RRIRTRPPRLPRPRPRPFSDPRP | -0.399
RRIRTRPPRLPRPRPRPFSQPRP | -0.0652
RRIRTRPPRLPRPRPRPFVPPRP | 2.01
RRIRTRPPRLPRPRPRPFYFPRP | -0.57
RRIRTRPPRLPRPRPRPGAAPRP | 0.509
RRIRTRPPRLPRPRPRPGATPRP | 0.572
RRIRTRPPRLPRPRPRPGCSPRP | 0.0133
RRIRTRPPRLPRPRPRPGCVPRP | 0.0396
RRIRTRPPRLPRPRPRPGDCPRP | -0.195
RRIRTRPPRLPRPRPRPGDDPRP | 0.24
RRIRTRPPRLPRPRPRPGECPRP | -0.258
RRIRTRPPRLPRPRPRPGEIPRP | -0.26

Sequence | shrunken log2 fold change
RRIRTRPPRLPRPRPRPGEQPRP | 0.15
RRIRTRPPRLPRPRPRPGERPRP | 0.113
RRIRTRPPRLPRPRPRPGGMPRP | -0.117
RRIRTRPPRLPRPRPRPGGRPRP | 0.384
RRIRTRPPRLPRPRPRPGHTPRP | -0.342
RRIRTRPPRLPRPRPRPGKLPRP | -0.394
RRIRTRPPRLPRPRPRPGLDPRP | 0.0222
RRIRTRPPRLPRPRPRPGLEPRP | 0.198
RRIRTRPPRLPRPRPRPGLTPRP | -0.0361
RRIRTRPPRLPRPRPRPGPTPRP | 0.455
RRIRTRPPRLPRPRPRPGQQPRP | -0.0603
RRIRTRPPRLPRPRPRPGRAPRP | 0.446
RRIRTRPPRLPRPRPRPGRDPRP | -0.0751
RRIRTRPPRLPRPRPRPGRPPRP | 0.217
RRIRTRPPRLPRPRPRPGRTPRP | -0.0318
RRIRTRPPRLPRPRPRPGSEPRP | -0.0538
RRIRTRPPRLPRPRPRPGSVPRP | -0.179
RRIRTRPPRLPRPRPRPGTLPRP | 0.16
RRIRTRPPRLPRPRPRPGTVPRP | 0.0209
RRIRTRPPRLPRPRPRPGVQPRP | -0.133
RRIRTRPPRLPRPRPRPGYAPRP | 0.111
RRIRTRPPRLPRPRPRPHAIPRP | 0.103
RRIRTRPPRLPRPRPRPHHGPRP | -0.0105
RRIRTRPPRLPRPRPRPHIHPRP | -0.102
RRIRTRPPRLPRPRPRPHISPRP | -0.0286
